Data as given in paper PMC11592666.

How the values were obtained:
GST-Atg8a wild type = GST-Atg8a wild type (UniProt Q9W2S2); experiment: GST pull-down; conditions: parent: est. 27; read off a plot
His-Dwg wild type = experiment: GST pull-down; conditions: parent: est. 41; read off a plot

Sequence of UniProt Q9W2S2 (Q9W2S2 entry or part of it): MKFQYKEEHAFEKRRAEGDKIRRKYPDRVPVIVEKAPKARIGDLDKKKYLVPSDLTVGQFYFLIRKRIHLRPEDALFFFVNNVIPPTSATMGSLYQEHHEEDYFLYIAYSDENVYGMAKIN

| other: Fold Change (GST-Atg8a wild type) | other: Fold Change (His-Dwg wild type) | Substance |
| --- | --- | --- |
| 9.5 | – | His-Dwg wild type Y129A; I132A |
| – | 4.4 | GST-Atg8a wild type (from UniProt Q9W2S2) Y49A |
